In patent publication US20150025225A1 (SHIONOGI, published 2015):
Changes are numbered by the printed parent chain. Each block holds one binder with its values, some of them ahead of it.

Experiments:
Baboon EL-C2 tag [1] = biological target: T1, Baboon EL-C2 tag (baboon, UniProt Q9Y5X9 21-500 (human entry), limits assumed); experiment: cell-based or functional assay
T1 chain: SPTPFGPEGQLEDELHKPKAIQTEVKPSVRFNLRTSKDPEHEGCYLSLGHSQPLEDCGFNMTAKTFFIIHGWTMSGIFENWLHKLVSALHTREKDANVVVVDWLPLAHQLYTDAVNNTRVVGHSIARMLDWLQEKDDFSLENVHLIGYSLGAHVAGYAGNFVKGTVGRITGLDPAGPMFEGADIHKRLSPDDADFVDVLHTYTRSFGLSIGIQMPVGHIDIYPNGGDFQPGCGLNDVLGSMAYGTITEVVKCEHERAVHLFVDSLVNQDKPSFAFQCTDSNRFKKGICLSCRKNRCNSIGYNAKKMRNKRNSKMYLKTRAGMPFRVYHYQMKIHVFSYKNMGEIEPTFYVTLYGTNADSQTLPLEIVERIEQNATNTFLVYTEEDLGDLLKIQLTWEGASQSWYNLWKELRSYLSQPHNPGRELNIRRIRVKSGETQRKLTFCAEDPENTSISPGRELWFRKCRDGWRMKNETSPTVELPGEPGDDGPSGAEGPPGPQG

[2] = biological target: T2, cynomolgus monkey EL-C2 tag (cynomolgus monkey, UniProt Q9Y5X9 21-500 (human entry), limits assumed); experiment: cell-based or functional assay
T2 chain: T1 chain with E12A, E141G

[3] = biological target: T3, human EL[331-459]-mouse EL-C2 tag (human/mouse chimera, UniProt Q9WVG5 21-500 (mouse entry)); experiment: cell-based or functional assay
T3 chain: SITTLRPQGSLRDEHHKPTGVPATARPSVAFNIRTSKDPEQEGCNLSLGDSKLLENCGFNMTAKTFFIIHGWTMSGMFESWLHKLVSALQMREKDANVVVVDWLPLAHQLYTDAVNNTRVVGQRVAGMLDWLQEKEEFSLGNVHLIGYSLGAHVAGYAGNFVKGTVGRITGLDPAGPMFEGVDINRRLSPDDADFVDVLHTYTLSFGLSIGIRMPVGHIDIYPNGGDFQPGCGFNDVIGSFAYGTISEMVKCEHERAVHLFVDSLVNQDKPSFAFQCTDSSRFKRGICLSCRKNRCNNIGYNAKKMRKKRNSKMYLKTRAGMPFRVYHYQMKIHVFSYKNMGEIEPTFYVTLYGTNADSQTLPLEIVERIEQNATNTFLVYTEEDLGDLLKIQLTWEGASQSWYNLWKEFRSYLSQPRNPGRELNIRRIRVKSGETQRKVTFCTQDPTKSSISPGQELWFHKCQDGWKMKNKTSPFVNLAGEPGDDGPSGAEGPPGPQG

rabbit EL-C2 tag = biological target: T4, rabbit EL-C2 tag (rabbit); experiment: cell-based or functional assay
T4 chain: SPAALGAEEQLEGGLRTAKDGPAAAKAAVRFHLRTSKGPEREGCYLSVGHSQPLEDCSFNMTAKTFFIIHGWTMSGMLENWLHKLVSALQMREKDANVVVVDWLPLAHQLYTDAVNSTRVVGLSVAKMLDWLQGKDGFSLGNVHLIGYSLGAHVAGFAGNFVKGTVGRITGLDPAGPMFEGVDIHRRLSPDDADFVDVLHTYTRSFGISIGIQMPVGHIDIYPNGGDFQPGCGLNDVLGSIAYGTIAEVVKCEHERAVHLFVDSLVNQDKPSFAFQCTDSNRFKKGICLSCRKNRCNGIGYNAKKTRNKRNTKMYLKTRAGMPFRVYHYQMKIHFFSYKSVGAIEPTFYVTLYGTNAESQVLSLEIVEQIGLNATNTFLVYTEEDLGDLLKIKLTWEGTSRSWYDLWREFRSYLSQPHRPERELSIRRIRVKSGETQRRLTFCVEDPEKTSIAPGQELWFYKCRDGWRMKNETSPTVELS

Baboon EL-C2 tag [4] = biological target: T1, Baboon EL-C2 tag; experiment: Biacore SPR; EL heparin extract captured by anti-C2-tag antibody on CM5, antibody as analyte, bivalent fit
Procedure: (§1) The binding affinities of anti-EL antibodies were measured using Biacore. Anti-C2-tag antibody was immobilized on a sensor chip CM5 (GE HealthCare) using amine-coupling and baboon EL heparin extract or cynomolgus monkey heparin extract diluted with HBS-P (GE Healthcare) was added and EL were captured on the sensor chip. Then anti-EL antibodies diluted with HBS-P were added and the binding affinities were calculated by bivalent fitting of BIAevaluation software (FIG. 9A-G).

[5] = biological target: T2, cynomolgus monkey EL-C2 tag; experiment: as above
Procedure: as §1

Baboon EL-C2 tag [6] = biological target: T1, Baboon EL-C2 tag; experiment: Biacore SPR; EL captured by anti-C2-tag antibody, antibody as analyte, bivalent fit; column head prints nM, kd/ka gives M
Procedure: as §1

[7] = biological target: T2, cynomolgus monkey EL-C2 tag; experiment: as above
Procedure: as §1

[8] = biological target: T5, human EL-411-459 fragment (human); experiment: sandwich ELISA with human EL fragment lysate, as Example 10
T5 construct: Used as HEK293 lysate
T5 chain: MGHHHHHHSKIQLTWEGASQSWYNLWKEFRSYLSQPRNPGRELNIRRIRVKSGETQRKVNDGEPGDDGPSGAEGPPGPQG

Neutralizing activity_IC50 (Baboon EL-C2 tag [1]): 7.1 nM
Neutralizing activity_IC50 [2]: 6.2 nM
Neutralizing activity_IC50 [3]: 15 nM
Neutralizing activity_IC50 (rabbit EL-C2 tag): 201 nM
koff (Baboon EL-C2 tag [4]): 0.00021 s⁻¹
kon (Baboon EL-C2 tag [4]): 350000 M⁻¹ s⁻¹
koff [5]: 0.00018 s⁻¹
kon [5]: 880000 M⁻¹ s⁻¹
Kd (Baboon EL-C2 tag [6]): 600 pM
Kd [7]: 200 pM
B1: 12B10 antibody (antibody, IgG2a, V domains shown)
VH: QVTLKESGPGILKPSQTLSLTCSFSGFSLSTSGMGVGWIRQPSGKGLEWLAHIWWNDEKYYNPSLKSQLTISKDTSRNQVFLKITSVDTADTATYYCARSYDGSPFPSWGQGTLVTVSA
VL: DIQMTQSPSSLSASLGGKVTITCKASQDINKYIAWFQHKPGKGPRLLMAYPFTLQPGIPSRFSGNGSGRDYSFSISNLEPEDIATYYCLQYDNLLWTFGGGTRLEIK

Neutralizing activity_IC50 (Baboon EL-C2 tag [1]): 4.6 nM
Neutralizing activity_IC50 [2]: 4.7 nM
Neutralizing activity_IC50 [3]: 5.3 nM
Neutralizing activity_IC50 (rabbit EL-C2 tag): 37 nM
binding result [8]: binds
koff (Baboon EL-C2 tag [4]): 0.00056 s⁻¹
kon (Baboon EL-C2 tag [4]): 140000 M⁻¹ s⁻¹
koff [5]: 0.00033 s⁻¹
kon [5]: 250000 M⁻¹ s⁻¹
Kd (Baboon EL-C2 tag [6]): 4000 pM
Kd [7]: 1300 pM
B2: 47B2 antibody (antibody, IgG2a, V domains shown)
VH: QVALKESGPGILQPSQTLSLTCSFSGFSLSTSGMGVGWIRQPSGKGLEWLAHIWWHGNKYYSTGLKSRLTISKDTSNNQVFLKIASVDTADTATYYCARISAGYPLDYWGQGTSVTVSS
VL: DIQMTQSPSSLSASLGGKVTITCKASQDINKYIVWYQHKPGKGPRLLIHYTSTLQPGFPSRFSGSGSGRDYSLSITNLEPEDIATYYCLQYDNLLWTFGGGTKLEIK
